Experimental data as given in US20100316632A1.

Columns and labels:
[1] = target: CD40 receptor (human), on CD14+ monocytes (human) (UniProt P25942)
[2] = target: CD40 receptor (human), on CD14+ monocytes (human) (UniProt P25942); remark: listed apart in the source

A TNF-α production by CD14+ monocytes (ELISA of supernatant after 24 h) [1] of 449 pg/mL, an IL-1β production by purified CD14+ cells of MDS patients (ELISA) [2] of 18 pg/mL and an IL-6 production by purified CD14+ cells of MDS patients (ELISA) [2] of 1210 pg/mL were found for “clone 64 (agonist anti-human CD40 monoclonal antibody, PanGenetics, The Netherlands)” in this work. The IL-10 production by purified CD14+ cells of MDS patients (ELISA) [2] was 1650 pg/mL.
